The test addresses T1, influenza virus nucleoprotein peptide on H-2Db (mouse).
T1 peptide: ASNENMDAM
As to the kind of experiment: Kd or kinetics.

B1: F5 TCR (TCR, V domains shown)
Valpha: GDSVTQMQGQVTLSEDDFLFINCTYSTTWYPTLFWYVQYPGEGPQLLLKVTTANNKGISRGFEATYDKGTTSFHLQKASVQESDSAVYYCVLGDRQGGRALIFGTGTTVSVSP
Vbeta: KAGVTQTPRYLIKTRGQQVTLSCSPISGHRSVSWYQQTPGQGLQFLFEYFSETQRNKGNFPGRFSGRQFSNSRSEMNVSTLELGDSALYLCASSFDSGNSPLHFGNGTRLTVT
For the molecule B1, the binding result is “recognises”.

Source of the values: US20060093613A1 (published 2006).
